Reference: patent US8349797 (dated 2013)
Where two headings read alike, the source gives them in different places. Bridges are numbered along the chain shown (N, C = ends). [ ]: non-standard residue; d: D form. 1Nal = N[C@@H](Cc1cccc2ccccc12)C(=O)O; 2Nal = N[C@@H](Cc1ccc2ccccc2c1)C(=O)O; d2Nal = N[C@H](Cc1ccc2ccccc2c1)C(=O)O; Aib = CC(C)(N)C(=O)O; βAla = NCCC(=O)O

Assays:
Assay in all cases: competition
hMC5-R [1] = biological target: T1, hMC5-R (human, UniProt P33032)
hMC1-R [2] = biological target: T2, hMC1-R (human, UniProt Q01726)
T2 sequence (Q01726 whole entry): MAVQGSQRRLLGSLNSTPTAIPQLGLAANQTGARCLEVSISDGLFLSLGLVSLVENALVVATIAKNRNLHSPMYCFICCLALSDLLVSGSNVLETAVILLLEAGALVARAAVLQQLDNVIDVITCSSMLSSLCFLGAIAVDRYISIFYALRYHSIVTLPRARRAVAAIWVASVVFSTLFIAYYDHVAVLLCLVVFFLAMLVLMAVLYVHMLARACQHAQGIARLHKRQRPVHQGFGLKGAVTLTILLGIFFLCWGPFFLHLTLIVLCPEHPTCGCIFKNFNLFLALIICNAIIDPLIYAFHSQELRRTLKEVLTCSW

hMC4-R [3] = biological target: T3, hMC4-R (human, UniProt P32245)
T3 sequence (P32245 whole entry): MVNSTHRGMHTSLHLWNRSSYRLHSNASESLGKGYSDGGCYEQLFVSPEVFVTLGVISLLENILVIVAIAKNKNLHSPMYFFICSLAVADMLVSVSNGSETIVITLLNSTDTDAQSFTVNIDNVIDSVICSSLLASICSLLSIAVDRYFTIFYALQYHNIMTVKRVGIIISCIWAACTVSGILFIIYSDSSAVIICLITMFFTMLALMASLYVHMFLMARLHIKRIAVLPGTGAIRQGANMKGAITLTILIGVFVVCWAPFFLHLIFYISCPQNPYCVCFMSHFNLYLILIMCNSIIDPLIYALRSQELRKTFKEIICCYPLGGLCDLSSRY

hMC3-R [4] = biological target: T4, hMC3-R (human, UniProt P41968)
T4 sequence (P41968 whole entry): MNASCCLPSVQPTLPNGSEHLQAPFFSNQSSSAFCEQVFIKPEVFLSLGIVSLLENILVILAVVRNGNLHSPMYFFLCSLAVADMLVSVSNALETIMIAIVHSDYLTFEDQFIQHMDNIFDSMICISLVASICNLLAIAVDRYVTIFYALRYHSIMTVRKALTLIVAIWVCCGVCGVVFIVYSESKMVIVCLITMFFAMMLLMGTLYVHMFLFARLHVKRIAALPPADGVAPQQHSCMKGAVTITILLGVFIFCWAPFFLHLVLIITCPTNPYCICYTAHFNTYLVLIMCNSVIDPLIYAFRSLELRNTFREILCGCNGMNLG

hMC4-R [5] = biological target: T3, hMC4-R; remark: listed apart in the source
hMC1-R [6] = biological target: T2, hMC1-R; remark: listed apart in the source
hMC5-R [7] = biological target: T1, hMC5-R; remark: listed apart in the source
hMC3-R [8] = biological target: T4, hMC3-R; remark: listed apart in the source

T1 sequence (P33032 whole entry): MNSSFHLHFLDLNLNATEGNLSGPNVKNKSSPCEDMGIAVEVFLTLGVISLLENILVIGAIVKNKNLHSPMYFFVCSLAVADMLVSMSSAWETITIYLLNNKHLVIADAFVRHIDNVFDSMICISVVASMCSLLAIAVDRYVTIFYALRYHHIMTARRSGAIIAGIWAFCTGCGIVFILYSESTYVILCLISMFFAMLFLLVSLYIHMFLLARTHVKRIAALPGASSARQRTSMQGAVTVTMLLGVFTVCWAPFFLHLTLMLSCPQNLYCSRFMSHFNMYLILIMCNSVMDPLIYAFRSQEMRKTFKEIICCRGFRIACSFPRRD

Binder	Ki (hMC5-R [1])	Ki (hMC1-R [2])	Ki (hMC4-R [3])	Ki (hMC3-R [4])	Ki (hMC4-R [5])	Ki (hMC1-R [6])	Ki (hMC5-R [7])	Ki (hMC3-R [8])
Ac-CEH[d2Nal]R[2Nal]ACPPKD-NH2 (disulfide 1-8; SMILES CC(=O)N[C@H]1CSSC[C@@H](C(=O)N2CCC[C@H]2C(=O)N2CCC[C@H]2C(=O)N[C@@H](CCCCN)C(=O)N[C@@H](CC(=O)O)C(N)=O)NC(=O)[C@H](C)NC(=O)[C@H](Cc2ccc3ccccc3c2)NC(=O)[C@H](CCCNC(=N)N)NC(=O)[C@@H](Cc2ccc3ccccc3c2)NC(=O)[C@H](Cc2c[nH]cn2)NC(=O)[C@H](CCC(=O)O)NC1=O) [Table 2A compound 14]	359 nM	87.8 nM	1.2 nM	9.08 nM				
Ac-CEH[d2Nal]R[2Nal][Aib]CPPKD-NH2 (disulfide 1-8; SMILES CC(=O)N[C@H]1CSSC[C@@H](C(=O)N2CCC[C@H]2C(=O)N2CCC[C@H]2C(=O)N[C@@H](CCCCN)C(=O)N[C@@H](CC(=O)O)C(N)=O)NC(=O)C(C)(C)NC(=O)[C@H](Cc2ccc3ccccc3c2)NC(=O)[C@H](CCCNC(=N)N)NC(=O)[C@@H](Cc2ccc3ccccc3c2)NC(=O)[C@H](Cc2c[nH]cn2)NC(=O)[C@H](CCC(=O)O)NC1=O) [Table 2B compound 2]					5.87 nM	1820 nM	979 nM	306 nM
Ac-CEH[d2Nal]R[1Nal]ACPPKD-NH2 (disulfide 1-8; SMILES CC(=O)N[C@H]1CSSC[C@@H](C(=O)N2CCC[C@H]2C(=O)N2CCC[C@H]2C(=O)N[C@@H](CCCCN)C(=O)N[C@@H](CC(=O)O)C(N)=O)NC(=O)[C@H](C)NC(=O)[C@H](Cc2cccc3ccccc23)NC(=O)[C@H](CCCNC(=N)N)NC(=O)[C@@H](Cc2ccc3ccccc3c2)NC(=O)[C@H](Cc2c[nH]cn2)NC(=O)[C@H](CCC(=O)O)NC1=O) [Table 2A compound 15]	348 nM	124 nM	1.11 nM	17.8 nM				
Ac-CEH[d2Nal]R[2Nal][βAla]CPPKD-NH2 (disulfide 1-8; SMILES CC(=O)N[C@H]1CSSC[C@@H](C(=O)N2CCC[C@H]2C(=O)N2CCC[C@H]2C(=O)N[C@@H](CCCCN)C(=O)N[C@@H](CC(=O)O)C(N)=O)NC(=O)CCNC(=O)[C@H](Cc2ccc3ccccc3c2)NC(=O)[C@H](CCCNC(=N)N)NC(=O)[C@@H](Cc2ccc3ccccc3c2)NC(=O)[C@H](Cc2c[nH]cn2)NC(=O)[C@H](CCC(=O)O)NC1=O) [Table 2B compound 1]					10.7 nM	2060 nM	239 nM	113 nM
